The record followed here is US20190300611A1 (ARCH ONCOLOGY, published 2019).

A word on the Kd: it is the constant that tells how readily two partners part at equilibrium.

B1: VLX4 IgG4 S228P (xi) (antibody)
heavy: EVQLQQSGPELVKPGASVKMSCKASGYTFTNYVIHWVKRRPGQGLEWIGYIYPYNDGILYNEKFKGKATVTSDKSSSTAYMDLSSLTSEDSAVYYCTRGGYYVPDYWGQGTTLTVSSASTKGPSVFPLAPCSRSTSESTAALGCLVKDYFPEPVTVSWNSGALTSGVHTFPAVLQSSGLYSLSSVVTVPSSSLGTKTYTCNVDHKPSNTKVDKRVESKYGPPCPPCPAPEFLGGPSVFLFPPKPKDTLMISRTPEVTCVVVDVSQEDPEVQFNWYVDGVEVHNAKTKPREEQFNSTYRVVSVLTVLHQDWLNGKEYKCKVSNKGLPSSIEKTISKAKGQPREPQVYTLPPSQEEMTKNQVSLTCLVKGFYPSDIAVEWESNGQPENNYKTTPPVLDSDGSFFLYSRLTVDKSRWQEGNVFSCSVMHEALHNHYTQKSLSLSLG
light: DVLMTQTPLSLPVNLGDQASISCRSRQSIVHTNGNTYLGWFLQKPGQSPKLLIYKVSNRFSGVPDRFSGSGSGTDFTLTISRVEAEDLGVYYCFQGSHVPYTFGGGTKLEIKRTVAAPSVFIFPPSDEQLKSGTASVVCLLNNFYPREAKVQWKVDNALQSGNSQESVTEQDSKDSTYSLSSTLTLSKADYEKHKVYACEVTHQGLSSPVTKSFNRGEC
B2: VLX4 IgG2 (xi) (antibody)
heavy: EVQLQQSGPELVKPGASVKMSCKASGYTFTNYVIHWVKRRPGQGLEWIGYIYPYNDGILYNEKFKGKATVTSDKSSSTAYMDLSSLTSEDSAVYYCTRGGYYVPDYWGQGTTLTVSSASTKGPSVFPLAPCSRSTSESTAALGCLVKDYFPEPVTVSWNSGALTSGVHTFPAVLQSSGLYSLSSVVTVPSSNFGTQTYTCNVDHKPSNTKVDKTVERKCCVECPPCPAPPVAGPSVFLFPPKPKDTLMISRTPEVTCVVVDVSHEDPEVQFNWYVDGVEVHNAKTKPREEQFNSTFRVVSVLTVVHQDWLNGKEYKCKVSNKGLPAPIEKTISKTKGQPREPQVYTLPPSREEMTKNQVSLTCLVKGFYPSDIAVEWESNGQPENNYKTTPPMLDSDGSFFLYSKLTVDKSRWQQGNVFSCSVMHEALHNHYTQKSLSLSPGK
light: B1 light
B3: VLX4 IgG4 PE(xi) (antibody)
heavy: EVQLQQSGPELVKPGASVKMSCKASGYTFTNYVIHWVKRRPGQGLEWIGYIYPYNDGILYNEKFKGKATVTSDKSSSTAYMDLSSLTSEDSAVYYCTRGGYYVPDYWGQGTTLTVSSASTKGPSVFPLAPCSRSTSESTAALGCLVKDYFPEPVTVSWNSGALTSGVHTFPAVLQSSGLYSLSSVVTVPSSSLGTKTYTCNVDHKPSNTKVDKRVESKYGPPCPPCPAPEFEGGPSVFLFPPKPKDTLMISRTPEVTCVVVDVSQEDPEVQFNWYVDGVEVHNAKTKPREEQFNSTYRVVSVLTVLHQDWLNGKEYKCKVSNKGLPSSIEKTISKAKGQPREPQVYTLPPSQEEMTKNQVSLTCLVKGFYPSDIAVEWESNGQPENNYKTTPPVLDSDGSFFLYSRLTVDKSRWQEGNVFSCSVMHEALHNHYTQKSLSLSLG
light: B1 light
notes: Murine-human chimera; also called VLX4 IgG4PE chimeric mAb

For the first assay, the target named is T1, human CD47 (human, UniProt Q08722 19-292).
T1 construct: On the surface of OV10 cells transfected with human CD47, fresh human RBCs, Jurkat T cells or human breast cancer tissue; also called hCD47; integrin-associated protein (IAP)
T1 sequence (Q08722 other isoform, or with tags, fused parts or gaps limits assumed): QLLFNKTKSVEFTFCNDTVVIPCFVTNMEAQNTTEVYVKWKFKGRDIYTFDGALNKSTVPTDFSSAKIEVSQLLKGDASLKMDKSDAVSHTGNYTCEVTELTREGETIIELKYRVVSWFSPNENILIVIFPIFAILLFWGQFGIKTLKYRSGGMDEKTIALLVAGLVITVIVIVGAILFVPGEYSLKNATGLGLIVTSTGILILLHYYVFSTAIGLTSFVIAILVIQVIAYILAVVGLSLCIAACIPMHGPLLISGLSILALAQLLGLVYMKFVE
Description: flow cytometry on human RBCs. As for the experimental part:
Binding activities of chimeric (murine-human) and humanized VLX4, VLX8, and VLX9 mAbs to human CD47 on hRBCs were also determined using flow cytometry. hRBCs were incubated for 60 min on at 37° C. with various concentrations of the chimeric or humanized antibodies in a solution of phosphate buffered saline, pH 7.2, 2.5 mM EDTA (PBS+E). Cells were then washed with cold PBS+E, and incubated for an additional hour on ice with FITC labeled donkey anti-human antibody (Jackson Immuno Research Labs, West Grove, Pa.; Catalogue #709-096-149) in PBS+E. Cells were washed with PBS+E, antibody binding analyzed using a C6 Accuri Flow Cytometer (Becton Dickinson) and apparent binding affinities determined by non-linear fit (Prism GraphPad software) of the median fluorescence intensities at the various antibody concentrations.
As for B1, the Kd was 0.099 nM.
Turning to B2, the Kd was 0.184 nM.
Take B3: the Kd stood at 0.303 nM. This Kd lies about 1.6-fold higher than the previous one.

For the next assay, the target named is T1, human CD47. Description: cell-based ELISA on OV10 hCD47 cells. As for the experimental part:
Binding activities of VLX4, VLX8, and VLX9 chimeric (murine-human) and humanized mAbs were determined using a cell-based ELISA assay with human OV10 hCD47 cells expressing cell surface human CD47. OV10 hCD47 cells were grown in IMDM medium containing 10% heat inactivated fetal bovine serum (BioWest; S01520). One day before assay, 3×10⁴ cells were plated in 96 well cell bind plates (Corning #3300, VWR #66025-626) and were 95-100% confluent at the time of assay. Cells were washed and various concentrations of purified antibodies added in IMDM 37° C. for 1 hr in […]. Cells were then washed with media and incubated for an additional hour at 37° C. with HRP labeled secondary anti-human antibody (Promega) diluted 1/2500 in media. Cells were washed three times with PBS, and the peroxidase substrate 3,3′, 5,5′-tetramethylbenzidine is added (Sigma; Catalog #T4444). Reactions were terminated by the addition of HCl to 0.7N, and absorbance at 450 nm is determined using a Tecan model Infinite M200 plate reader. The apparent binding affinities of these clones to human OV10 hCD47 cells was determined by non-linear fit (Prism GraphPad software).
Take B1: the Kd was 0.214 nM. This lies in the sub-nanomolar range.
Molecule B2 registered a Kd of 0.431 nM.
Same read-out and setting: in the case of B3 it was 0.225 nM.
